Measured values: patent publication US20210087522

Legend:
[1] = target: T1, FNPCP, CP of an uncharacterized NRP gene cluster from Fischerella
T1 chain: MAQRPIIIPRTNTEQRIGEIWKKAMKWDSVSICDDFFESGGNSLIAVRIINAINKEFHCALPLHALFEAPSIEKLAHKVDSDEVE

[2] = target: T2, MACP, CP of an uncharacterized NRP/PK gene cluster from M. aeruginosa NIES843
T2 chain: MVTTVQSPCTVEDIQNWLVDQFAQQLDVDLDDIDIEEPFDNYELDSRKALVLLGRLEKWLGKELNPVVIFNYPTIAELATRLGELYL

[3] = target: T3, AFACP, ACP of the FAS from Anabaena
T3 chain: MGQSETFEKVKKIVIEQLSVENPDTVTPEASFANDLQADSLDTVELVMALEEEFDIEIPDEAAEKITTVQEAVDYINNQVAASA

[4] = target: T4, APNPCP, CP of an uncharacterized NRP/PK gene cluster from Anabaena
T4 chain: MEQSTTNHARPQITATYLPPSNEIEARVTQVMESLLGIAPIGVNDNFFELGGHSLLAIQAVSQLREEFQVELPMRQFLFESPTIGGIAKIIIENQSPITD

[5] = target: T5, APACP, ACP of the glycolipid PKS in Anabaena
T5 chain: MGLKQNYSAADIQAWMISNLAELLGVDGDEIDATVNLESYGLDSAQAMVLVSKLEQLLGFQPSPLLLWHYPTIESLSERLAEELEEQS

[6] = target: T6, SFACP, ACP of the FAS from Synechocystis
T6 chain: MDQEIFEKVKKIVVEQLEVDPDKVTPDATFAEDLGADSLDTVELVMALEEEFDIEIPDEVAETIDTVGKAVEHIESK

[7] = target: T7, SsPCP, PCP of a thaxtomin cluster from Streptomyces scabiei 87.22
T7 chain: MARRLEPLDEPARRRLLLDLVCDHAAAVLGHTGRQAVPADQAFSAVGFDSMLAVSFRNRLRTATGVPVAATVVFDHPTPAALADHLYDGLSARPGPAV

[8] = target: T8, FisPCP, PCP of the shinorine gene cluster from Fischerella
T8 chain: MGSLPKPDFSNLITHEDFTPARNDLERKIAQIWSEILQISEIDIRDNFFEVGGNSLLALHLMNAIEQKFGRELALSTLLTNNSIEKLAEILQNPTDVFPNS

[9] = target: ScACP, ACP of a putative concanamycin gene cluster from Streptomyces coelicolor A(3)2
[10] = target: AprACP, ACP of the apratoxin (PK/NRP) gene cluster in Lyngbya sp.
[11] = target: T9, FNsACP, homolog of ArCPNp from Fischerella
T9 chain: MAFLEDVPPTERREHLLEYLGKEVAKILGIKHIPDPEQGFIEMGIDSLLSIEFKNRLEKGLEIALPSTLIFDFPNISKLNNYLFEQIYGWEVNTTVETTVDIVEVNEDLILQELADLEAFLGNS

B1: MPPT, Sfp-like phosphopantetheinyl transferase (PPTase) from Microcystis aeruginosa NIES843 (protein)
chain: MFISTDEVHLYFISLDPSGDRLETLASLLSEDEIIRANRYHFPEHKRRFLVARGCLREILGSYLAISPEKIEFIYSERGKPSINYQLQFNLSHSEEMAICGLTLTARIGVDLEKMRQMKDLDSLTKRFFCAREHELVEKSAEKEKLFFQLWTAKEAYLKAVGTGISGGLDRVEVGLNPLKLDNVAGEWQLWTAAIGDNYRATVVIEGSDRVIKTFGLSDL
- Km [1]: 7.2 µM
- kcat [1]: 0.16 s⁻¹
- kcat/Km [1]: 21700 M⁻¹ s⁻¹
- phosphopantetheinylation of CP (apo to holo), LC-MS [1]: APPT, AvPPT, MPPT and Sfp functionalized all substrates
- relative activity (most active PPTase = 100%) [1]: MPPT showed >84% relative activity toward all nine cyanobacterial CPs
- Km [2]: 4.9 µM
- kcat [2]: 0.07 s⁻¹
- kcat/Km [2]: 15000 M⁻¹ s⁻¹
- phosphopantetheinylation of CP (apo to holo), LC-MS [2]: APPT, AvPPT, MPPT and Sfp functionalized all substrates
- relative activity (most active PPTase = 100%) [2]: MPPT showed >84% relative activity toward all nine cyanobacterial CPs including the highest activity on MACP
- Km [3]: 6.9 µM
- kcat [3]: 0.14 s⁻¹
- kcat/Km [3]: 20000 M⁻¹ s⁻¹
- phosphopantetheinylation of CP (apo to holo), LC-MS [3]: APPT, AvPPT, MPPT and Sfp functionalized all substrates
- relative activity (most active PPTase = 100%) [3]: MPPT showed >84% relative activity toward all nine cyanobacterial CPs
- Km [4]: 9.5 µM
- kcat [4]: 0.0317 s⁻¹
- kcat/Km [4]: 3330 M⁻¹ s⁻¹
- phosphopantetheinylation of CP (apo to holo), LC-MS [4]: APPT, AvPPT, MPPT and Sfp functionalized all substrates
- relative activity (most active PPTase = 100%) [4]: MPPT showed >84% relative activity toward all nine cyanobacterial CPs
- Km [5]: 23.1 µM
- kcat [5]: 0.353 s⁻¹
- kcat/Km [5]: 15000 M⁻¹ s⁻¹
- phosphopantetheinylation of CP (apo to holo), LC-MS [5]: APPT, AvPPT, MPPT and Sfp functionalized all substrates
- relative activity (most active PPTase = 100%) [5]: MPPT showed >84% relative activity toward all nine cyanobacterial CPs
- Km [6]: 3.2 µM
- growth of Synechocystis mutant with the SPPT gene replaced [6]: demonstrated their in vivo function as activating SFACP for the synthesis of essential fatty acids
- kcat [6]: 0.02 s⁻¹
- kcat/Km [6]: 6670 M⁻¹ s⁻¹
- phosphopantetheinylation of CP (apo to holo), LC-MS [6]: APPT, AvPPT, MPPT and Sfp functionalized all substrates
- relative activity (most active PPTase = 100%) [6]: MPPT showed >84% relative activity toward all nine cyanobacterial CPs
- Km [7]: 9.1 µM
- kcat [7]: 0.118 s⁻¹
- kcat/Km [7]: 11700 M⁻¹ s⁻¹
- phosphopantetheinylation of CP (apo to holo), LC-MS [7]: APPT, AvPPT, MPPT and Sfp functionalized all substrates
- relative activity (most active PPTase = 100%) [7]: This enzyme also displayed a modest relative activity toward ScACP and SsPCP
- Km [8]: 7.2 µM
- kcat [8]: 0.0317 s⁻¹
- kcat/Km [8]: 5000 M⁻¹ s⁻¹
- phosphopantetheinylation of CP (apo to holo), LC-MS [8]: APPT, AvPPT, MPPT and Sfp functionalized all substrates
- relative activity (most active PPTase = 100%) [8]: MPPT showed >84% relative activity toward all nine cyanobacterial CPs
- Km [9]: 12.4 µM
- kcat [9]: 0.0433 s⁻¹
- kcat/Km [9]: 3330 M⁻¹ s⁻¹
- phosphopantetheinylation of CP (apo to holo), LC-MS [9]: APPT, AvPPT, MPPT and Sfp functionalized all substrates
- relative activity (most active PPTase = 100%) [9]: This enzyme also displayed a modest relative activity toward ScACP and SsPCP
- Km [10]: 9.1 µM
- kcat [10]: 0.173 s⁻¹
- kcat/Km [10]: 18300 M⁻¹ s⁻¹
- phosphopantetheinylation of CP (apo to holo), LC-MS [10]: APPT, AvPPT, MPPT and Sfp functionalized all substrates
- relative activity (most active PPTase = 100%) [10]: MPPT showed >84% relative activity toward all nine cyanobacterial CPs
- Km [11]: 8.3 µM
- kcat [11]: 0.035 s⁻¹
- kcat/Km [11]: 5000 M⁻¹ s⁻¹
- phosphopantetheinylation of CP (apo to holo), LC-MS [11]: APPT, AvPPT, MPPT and Sfp functionalized all substrates
- relative activity (most active PPTase = 100%) [11]: MPPT showed >84% relative activity toward all nine cyanobacterial CPs
